Data reported in publication PMC4995099, “Drosophila Nanos acts as a molecular clamp that modulates the RNA-binding and repression activities of Pumilio”.

T1: Pum PUM-HD WT (EMSA);Nos ZC WT (EMSA) (Drosophila melanogaster?;Drosophila …, UniProt P25822;P25724 1091-1426;289-401, |)
T1 sequence 1: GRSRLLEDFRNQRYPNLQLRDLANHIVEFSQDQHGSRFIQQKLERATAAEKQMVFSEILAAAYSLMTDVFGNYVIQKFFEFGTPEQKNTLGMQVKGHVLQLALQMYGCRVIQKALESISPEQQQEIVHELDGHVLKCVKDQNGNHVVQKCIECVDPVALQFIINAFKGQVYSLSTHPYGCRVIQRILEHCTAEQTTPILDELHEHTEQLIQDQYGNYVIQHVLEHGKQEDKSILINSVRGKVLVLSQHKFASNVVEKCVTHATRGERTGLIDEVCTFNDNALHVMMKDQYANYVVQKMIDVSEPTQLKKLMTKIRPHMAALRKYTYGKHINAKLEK
T1 sequence 2: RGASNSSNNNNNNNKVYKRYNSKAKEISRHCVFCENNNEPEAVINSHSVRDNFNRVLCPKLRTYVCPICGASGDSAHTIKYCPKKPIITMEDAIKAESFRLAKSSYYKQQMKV

T2: Pum PUM-HD WT (EMSA) (UniProt P25822 1091-1426)
T2 sequence: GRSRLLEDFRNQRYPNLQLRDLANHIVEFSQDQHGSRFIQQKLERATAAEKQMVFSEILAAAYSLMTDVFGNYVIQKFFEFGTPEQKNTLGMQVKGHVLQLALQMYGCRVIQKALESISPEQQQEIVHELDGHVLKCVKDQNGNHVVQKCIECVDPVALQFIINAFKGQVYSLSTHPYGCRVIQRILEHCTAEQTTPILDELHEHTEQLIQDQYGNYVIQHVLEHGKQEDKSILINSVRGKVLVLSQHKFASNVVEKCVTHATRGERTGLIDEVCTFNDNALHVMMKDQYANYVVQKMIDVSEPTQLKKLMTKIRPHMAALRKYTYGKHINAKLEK

T3: Pum Q1337A (UniProt P25822 1091-1426, Q1337A)
T3 sequence: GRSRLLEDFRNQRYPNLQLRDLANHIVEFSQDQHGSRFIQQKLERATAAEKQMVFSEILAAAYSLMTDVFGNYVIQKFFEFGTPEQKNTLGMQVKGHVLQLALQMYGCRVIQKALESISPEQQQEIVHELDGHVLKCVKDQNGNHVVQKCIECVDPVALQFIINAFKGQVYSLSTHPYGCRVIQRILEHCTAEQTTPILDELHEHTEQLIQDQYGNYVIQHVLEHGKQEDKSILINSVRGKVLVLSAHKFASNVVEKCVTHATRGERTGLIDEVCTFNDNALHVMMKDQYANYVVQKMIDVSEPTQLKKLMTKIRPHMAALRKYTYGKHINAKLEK

T4: Pum F1367S (UniProt P25822 1091-1426, F1367S)
T4 sequence: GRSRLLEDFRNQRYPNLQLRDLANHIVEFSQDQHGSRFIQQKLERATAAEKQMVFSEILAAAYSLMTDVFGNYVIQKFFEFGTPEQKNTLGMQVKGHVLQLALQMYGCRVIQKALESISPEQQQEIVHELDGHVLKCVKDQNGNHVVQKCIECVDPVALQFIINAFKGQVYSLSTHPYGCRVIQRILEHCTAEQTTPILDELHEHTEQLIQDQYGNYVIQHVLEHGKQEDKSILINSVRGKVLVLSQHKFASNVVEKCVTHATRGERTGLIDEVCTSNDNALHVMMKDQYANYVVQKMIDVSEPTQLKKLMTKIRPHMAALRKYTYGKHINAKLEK

T5: Nos ZC WT (EMSA) (UniProt P25724 289-401)
T5 sequence: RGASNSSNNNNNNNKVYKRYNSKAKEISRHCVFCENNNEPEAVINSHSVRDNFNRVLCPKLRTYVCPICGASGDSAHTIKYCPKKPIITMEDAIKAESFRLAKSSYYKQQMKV


Experiments:
[1] = biological target: T1, Pum PUM-HD WT (EMSA);Nos ZC WT (EMSA); assay: EMSA; Pum titrated, 400 nM Nos ZC constant; EMSA: 50 mM Tris-HCl pH 7.6, 150 mM NaCl, 2 mM DTT, 2 ug/mL BSA, 0.01% Igepal CA-630, 0.02% bromophenol blue, 20% glycerol, 3 h at 4 C; 1 nM Cy5 RNA or 0.3 nM 32P RNA; settings: protein: recombinant;recombinant, tags: N-terminal 3xFLAG, Halo-tag removed by TEV;C-terminal V5, copies: 1;1, label: 5' 32P (EMSA), none (crystal)
Pum PUM-HD WT (EMSA) [2] = biological target: T2, Pum PUM-HD WT (EMSA); assay: EMSA; Pum alone; Kd printed only in figure; EMSA: 50 mM Tris-HCl pH 7.6, 150 mM NaCl, 2 mM DTT, 2 ug/mL BSA, 0.01% Igepal CA-630, 0.02% bromophenol blue, 20% glycerol, 3 h at 4 C; 1 nM Cy5 RNA or 0.3 nM 32P RNA; settings: protein: recombinant; tags: N-terminal 3xFLAG; Halo-tag removed by TEV; label: 5' 32P (EMSA); none (crystal)
Pum Q1337A = biological target: T3, Pum Q1337A; assay: EMSA; RNA label form not stated; EMSA: 50 mM Tris-HCl pH 7.6, 150 mM NaCl, 2 mM DTT, 2 ug/mL BSA, 0.01% Igepal CA-630, 0.02% bromophenol blue, 20% glycerol, 3 h at 4 C; 1 nM Cy5 RNA or 0.3 nM 32P RNA; settings: protein: recombinant; tags: N-terminal 3xFLAG; Halo-tag removed by TEV; label: 5' Cy5
Pum F1367S = biological target: T4, Pum F1367S; assay: as above; settings: protein: recombinant; tags: N-terminal 3xFLAG; Halo-tag removed by TEV; label: 5' Cy5
Nos ZC WT (EMSA) = biological target: T5, Nos ZC WT (EMSA); assay: EMSA; up to 1 uM Nos ZC; EMSA: 50 mM Tris-HCl pH 7.6, 150 mM NaCl, 2 mM DTT, 2 ug/mL BSA, 0.01% Igepal CA-630, 0.02% bromophenol blue, 20% glycerol, 3 h at 4 C; 1 nM Cy5 RNA or 0.3 nM 32P RNA; settings: protein: recombinant; tags: C-terminal V5; Halo-tag removed by TEV; label: 5' Cy5
Pum PUM-HD WT (EMSA) [3] = biological target: T2, Pum PUM-HD WT (EMSA); assay: EMSA; EMSA: 50 mM Tris-HCl pH 7.6, 150 mM NaCl, 2 mM DTT, 2 ug/mL BSA, 0.01% Igepal CA-630, 0.02% bromophenol blue, 20% glycerol, 3 h at 4 C; 1 nM Cy5 RNA or 0.3 nM 32P RNA; settings: protein: recombinant; tags: N-terminal 3xFLAG; Halo-tag removed by TEV; label: 5' Cy5
[4] = biological target: T1, Pum PUM-HD WT (EMSA);Nos ZC WT (EMSA); assay: EMSA; Nos ZC titrated at 100 nM Pum; high affinity, Kd only in figure; EMSA: 50 mM Tris-HCl pH 7.6, 150 mM NaCl, 2 mM DTT, 2 ug/mL BSA, 0.01% Igepal CA-630, 0.02% bromophenol blue, 20% glycerol, 3 h at 4 C; 1 nM Cy5 RNA or 0.3 nM 32P RNA; settings: protein: recombinant;recombinant, tags: N-terminal 3xFLAG, Halo-tag removed by TEV;C-terminal V5, copies: 1;1, label: 5' Cy5

Binder | Kd [1] [nM] | fold weaker RNA-binding affinity (Kd ratio) (Pum PUM-HD WT (EMSA) [2]) | binding result (Pum Q1337A) | binding result (Pum F1367S) | binding result (Nos ZC WT (EMSA)) | binding result (Pum PUM-HD WT (EMSA) [3]) | binding result [4]
AAAUUGUACAUAAGCC (ssRNA) [hb NRE2 RNA 16-nt] | 8.7 | 3 fold weaker than with Nos ZC |  |  |  |  | 
UUGUUGUCGAAAAUUGUACAUAAGCC (ssRNA) [Cy5-hb NRE2 RNA] |  |  | binds | binds | no binding | binds | binds
